Data as given in patent US11385226.

Target: recombinant Human IL-8 (BD Pharmingen cat #554609) (human) (UniProt P10145)
Experiment: sandwich immunoassay on Capture Antibody 1 magnetic beads; potentiometric read-out of bound glucose oxidase conjugate after adding glucose; no potential without IL-8

Capture Antibody 2, an anti-Mouse α-Human IL-8 Monoclonal Antibody (for ICC, BD Pharmingen cat #550419), conjugated to Glucose Oxidase from Aspergillus niger, sequence (P13006 23-605): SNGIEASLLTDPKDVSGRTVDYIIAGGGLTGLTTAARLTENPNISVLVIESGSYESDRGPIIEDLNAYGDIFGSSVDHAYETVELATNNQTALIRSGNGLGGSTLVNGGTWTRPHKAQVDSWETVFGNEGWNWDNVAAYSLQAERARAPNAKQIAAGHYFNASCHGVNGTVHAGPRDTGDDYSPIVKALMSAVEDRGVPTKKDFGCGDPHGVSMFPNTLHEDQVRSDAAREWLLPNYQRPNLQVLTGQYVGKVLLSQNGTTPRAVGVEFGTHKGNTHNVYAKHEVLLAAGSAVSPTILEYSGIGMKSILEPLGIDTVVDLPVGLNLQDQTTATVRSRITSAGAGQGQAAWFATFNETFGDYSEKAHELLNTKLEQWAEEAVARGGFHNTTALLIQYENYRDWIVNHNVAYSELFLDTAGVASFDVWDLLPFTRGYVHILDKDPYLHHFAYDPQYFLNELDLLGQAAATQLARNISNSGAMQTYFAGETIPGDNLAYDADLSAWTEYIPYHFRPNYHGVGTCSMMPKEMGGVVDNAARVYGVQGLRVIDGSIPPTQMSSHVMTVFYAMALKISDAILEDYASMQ
recombinant Human IL-8 (BD Pharmingen cat #554609) (human), sequence (P10145 28-99 limits assumed): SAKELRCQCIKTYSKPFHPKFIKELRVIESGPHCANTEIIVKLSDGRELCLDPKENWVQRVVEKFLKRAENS

potential: 1 to 55 mV
Substance: Capture Antibody 2, an anti-Mouse α-Human IL-8 Monoclonal Antibody (for ICC, BD Pharmingen cat #550419), conjugated to Glucose Oxidase from Aspergillus niger (from UniProt P13006 23-605)
